Laboratory results from IntAct's records for PubMed 19366670.

B1: 10 kDa anti-sigma factor (Enterobacteria phage T4), P32267 (parent)
chain: MNKNIDTVREIITVASILIKFSREDIVENRANFIAFLNEIGVTHEGRKLNQNSFRKIVSELTQEDKKTLIDEFNEGFEGVYRYLEMYTNK

Variants of: B1
Details: with rpob_ecoli rpoB

Variant	effect of a mutation on the interaction
N74D	decreasing interaction strength
